Laboratory results: paper PMC4459817, “Vasculotide reduces endothelial permeability and tumor cell extravasation in the absence of binding to or agonistic activation of Tie2” (EMBO Molecular Medicine, 2015)

T1: mouse Tie2-Fc (Fc-conjugated extracellular domain of Tie2) (mouse, UniProt Q02858 23-746)
T1 chain: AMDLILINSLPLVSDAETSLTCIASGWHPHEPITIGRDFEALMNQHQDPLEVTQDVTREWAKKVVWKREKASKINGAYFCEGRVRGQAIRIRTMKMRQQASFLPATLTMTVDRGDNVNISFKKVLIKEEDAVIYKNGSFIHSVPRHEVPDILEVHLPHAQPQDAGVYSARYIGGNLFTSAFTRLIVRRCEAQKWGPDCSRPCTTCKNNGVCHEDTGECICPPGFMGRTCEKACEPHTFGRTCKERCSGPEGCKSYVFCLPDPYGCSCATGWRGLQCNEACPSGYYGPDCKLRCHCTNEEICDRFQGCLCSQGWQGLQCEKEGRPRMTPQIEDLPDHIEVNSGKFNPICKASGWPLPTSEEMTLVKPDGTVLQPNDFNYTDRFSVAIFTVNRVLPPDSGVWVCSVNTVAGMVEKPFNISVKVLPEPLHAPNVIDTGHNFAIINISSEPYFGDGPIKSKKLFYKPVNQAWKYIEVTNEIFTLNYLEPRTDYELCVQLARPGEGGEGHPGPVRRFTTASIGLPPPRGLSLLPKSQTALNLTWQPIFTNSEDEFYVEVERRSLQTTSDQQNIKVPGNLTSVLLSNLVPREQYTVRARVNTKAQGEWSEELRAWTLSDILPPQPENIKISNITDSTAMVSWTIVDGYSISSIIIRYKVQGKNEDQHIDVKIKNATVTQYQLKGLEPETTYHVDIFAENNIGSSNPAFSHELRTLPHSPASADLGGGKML

T2: human Tie2-Fc (Fc-conjugated extracellular domain of Tie2) (human, UniProt Q02763 23-748)
T2 chain: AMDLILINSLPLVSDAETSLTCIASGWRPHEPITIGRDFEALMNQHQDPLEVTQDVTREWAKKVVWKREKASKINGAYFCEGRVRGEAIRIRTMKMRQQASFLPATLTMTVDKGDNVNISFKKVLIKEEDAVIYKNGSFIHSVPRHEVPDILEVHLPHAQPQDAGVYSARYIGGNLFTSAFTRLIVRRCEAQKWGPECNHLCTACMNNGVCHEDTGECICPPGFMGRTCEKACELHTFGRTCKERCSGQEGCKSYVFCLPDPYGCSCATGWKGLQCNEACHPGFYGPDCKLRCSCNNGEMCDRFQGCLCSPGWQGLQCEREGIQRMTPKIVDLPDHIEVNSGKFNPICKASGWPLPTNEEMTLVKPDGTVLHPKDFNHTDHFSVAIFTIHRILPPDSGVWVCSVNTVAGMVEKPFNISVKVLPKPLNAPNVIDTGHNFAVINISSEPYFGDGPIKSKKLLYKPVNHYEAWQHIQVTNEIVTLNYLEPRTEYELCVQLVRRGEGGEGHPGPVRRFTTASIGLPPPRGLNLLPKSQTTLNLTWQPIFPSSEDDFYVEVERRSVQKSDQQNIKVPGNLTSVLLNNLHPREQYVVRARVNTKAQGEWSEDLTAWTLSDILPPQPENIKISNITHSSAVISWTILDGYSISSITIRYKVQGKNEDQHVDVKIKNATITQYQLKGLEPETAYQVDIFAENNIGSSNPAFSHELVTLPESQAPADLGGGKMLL


Columns and labels:
[1] = system: Tie2 (Ang1 or Ang2 binding); conditions: synthetic free form, ref Tournaire et al, 2004, cited from earlier work; for inhibition of Ang1 or Ang2 binding to Tie2: competition assays, tested up to 1 mM
From the text: For therapeutic use, recombinant variants or mimetics of multimeric Ang1 have been engineered, including Ang1* and Ang-F1-Fc-F1/Bow-Ang1 (Davis et al, [2003]; Daly et al, [2013]), MAT-Ang1 and COMP-Ang1 (Cho et al, [2004]; Koh, [2013]). […] The main focus of the original paper that discovered T7 (Tournaire et al, [2004]) was actually on a different peptide called ‘T4’ (NLLMAAS) and its potential use as a Tie2 inhibitor/antagonist.

[2] = target: T3, human Tie2-Fc (hTie2-Fc) (Homo sapiens, UniProt Q02763); experiment: SPR binding to human Tie2-Fc; conditions: human Tie2-Fc, 0.625–10 nM, 37°C, pH 7.4, Fig9C
T3 construct: Purified human or mouse Tie2-Fc (i.e., Fc-conjugated extracellular domains of Tie2); purchased R&D Systems 313-TI-100
From the text: (§1) To better understand the difficulties we had in observing Tie2 activation by VT, we sought to characterize the binding affinity and kinetics of VT to Tie2. Purified human or mouse Tie2-Fc (i.e., Fc-conjugated extracellular domains of Tie2) were first coupled to protein A sepharose beads for pull-down experiments (Fig9A and B) or immobilized on a Biacore CM5 sensor chip for surface plasmon resonance (SPR) experiments (Fig9C and Supplementary Fig S3).
Figure 9 Binding of Vasculotide vs. Ang1 variants to the extracellular domain of Tie2 • A–B Pull-down assay. Input ligands—rhAng1 (A) and VT (B)—were incubated with either protein A sepharose beads only, bead-conjugated mouse Tie2-Fc (mTie2), or bead-conjugated human Tie2-Fc (hTie2). […] The ‘unbound’ fraction is 7% of residual/free ligands remaining in the supernatant. • C Quantitative kinetics analysis by SPR. All analytes were run at increasing concentrations of 0.625, 1.25, 2.5, 5, and 10 nM, at 37°C and pH 7.4. […] Source data are available online for this figure. […]
(§2) 9. Tie2 Receptor-Binding Assays
(§3) Vasculotide (VT) was manufactured by Bachem UK Ltd. T7c (CHHHRHSF) was synthesized by Genscript (Piscataway, NJ, USA). PEG-Cys consists of a single cysteine reacted to each of the 4 arms of PEG-maleimide (Sunbright PTE-100MA, NOF Corporation, Tokyo, Japan). BowAng1 (Ang1-Fd-Fc-Fd) was made and provided by Regeneron Pharmaceuticals, Inc. (Tarrytown, NY, USA). COMP-Ang1 was purified in the Kerbel lab from serum-free culture media conditioned by an engineered CHO cell line provided by Dr. Gou Young Koh (KAIST), according to published protocols (Hwang et al, 2008).
(§4) Recombinant human Angiopoietin-1 (rhAng1) and Vascular Endothelial Growth Factor ( rhVEGF) were […]
(§5) purchased from R&D Systems. […]
(structural/molecular weight control for VT), and 40 μL of supernatant (7% of residual/unbound ligand) – were similarly boiled in SDS sample buffer. Ang1 samples and controls were resolved by 7.5% polyacrylamide gel electrophoresis (PAGE), electroblotted onto PVDF membranes, and probed with an anti-Ang1 antibody (R&D Sytems, AF923; diluted 1:2,000 in TBS supplemented with 7% BSA and 0.1% Tween-20) at 75kDa (reduced monomers). VT samples and controls were resolved by 17% PAGE, blotted onto PVDF membranes, and probed with an anti-PEG antibody (Silver Lake Research, CH2074; diluted 1:4,000 in TBS supplemented with 7% BSA and 0.05% CHAPS*) at higher “apparent” molecular weights than the expected 14 and 10kDa due to their polymeric nature and large hydrodynamic radii (Zheng et al, 2007). *Note: non-ionic, PEO-based, polymer detergents were avoided at these steps as they cross-react with the anti-PEG antibody used for detecting VT.
Surface Plasmon Resonance (SPR) Experiments: The binding of analytes – VT, T7c peptide, PEG-Cys, rhAng1, COMP-Ang1, BowAng1, and rhVEGF – to the extracellular domain of Tie2 were […]
investigated by SPR using a Biacore T200 Instrument (GE Healthcare). For qualitative binding analysis, mTie2-Fc was dissolved in 10mM acetate buffer (pH 4.5) and immobilized at high density onto a CM5 sensor chip using amine coupling chemistry as described by the manufacturer to a response of 11,500RU.
Binding analysis were performed by exposure of immobilized mTie2-Fc to the analytes diluted in HBS-EP (0.01M HEPES pH 7.4, 0.15M NaCl, 3mM EDTA, 0.005% v/v Tween-20), which was supplemented with 1mg/mL carboxymethyl dextran (NSB reducer, GE Healthcare) to reduce non-specific binding to the sensor chip. Analytes were injected at 30μL/min (association time 120s, dissociation time 120s) at 37 °C, and the chip surface was regenerated each cycle by a 60s pulse of 4M MgCl2. To quantitatively determine the kinetic properties of the interaction (KD, kd, ka) and avoid mass transport limitations, mTie2-Fc and hTie2-Fc were immobilized at low density (1,000-1,200RU) onto separate flow cells of the CM5 chip using amine coupling chemistry. Kinetic analyses were performed using a single-cycle kinetic […]

[3] = target: T4, mouse Tie2-Fc (mTie2-Fc) (Mus musculus, UniProt Q02858); experiment: SPR binding to mouse Tie2-Fc; conditions: mouse Tie2-Fc (low- and high-density), 37°C, pH 7.4, Supplementary Fig S3
T4 construct: Purified human or mouse Tie2-Fc (i.e., Fc-conjugated extracellular domains of Tie2); purchased R&D Systems 762-T2-100
From the text: as §1, with “S3). […]” for “S3).”
as §2, §3, §4, §5
(structural/molecular weight control for VT), and 40 μL of supernatant (7% of residual/unbound ligand) – were similarly boiled in SDS sample buffer. […]
Binding analysis were performed by exposure of immobilized mTie2-Fc to the analytes diluted in HBS-EP (0.01M HEPES pH 7.4, 0.15M NaCl, 3mM EDTA, 0.005% v/v Tween-20), which was supplemented with 1mg/mL carboxymethyl dextran (NSB reducer, GE Healthcare) to reduce non-specific binding to the sensor chip. […] To quantitatively determine the kinetic properties of the interaction (KD, kd, ka) and avoid mass transport limitations, mTie2-Fc and hTie2-Fc were immobilized at low density (1,000-1,200RU) onto separate flow cells of the CM5 chip using amine coupling chemistry. […] All data were analysed using BIA Evaluation Software 2.0 (GE Healthcare) to calculate kd, ka and KD using the 1:1 ligand binding model. […]

[4] = target: T1, mouse Tie2-Fc (Fc-conjugated …); experiment: SPR
[5] = target: T2, human Tie2-Fc (Fc-conjugated …); experiment: SPR
[6] = target: T2, human Tie2-Fc (Fc-conjugated …); experiment: SPR
[7] = target: T1, mouse Tie2-Fc (Fc-conjugated …); experiment: SPR

| Molecule | inhibition of Ang1 or Ang2 binding to Tie2 [1] | koff [4] [s⁻¹] | koff [5] [s⁻¹] | Kd [6] [nM] | Kd [7] [nM] | other results |
| --- | --- | --- | --- | --- | --- | --- |
| HHHRHSF [T7, HHHRHSF, heptapeptide identified by phage display, synthetic free form] | did not inhibit Ang1 or Ang2 binding to Tie2 | – | – | – | – | – |
| NLLMAAS [T4] | able to competitively inhibit Ang1 or Ang2 binding to Tie2 | – | – | – | – | Ki ([1]; ELISA and SPR, read-out: Ki, competitive inhibition of Ang1 or Ang2 binding to Tie2): ~300000 nM |
| VEGF | – | – | – | – | – | binding to Tie2-Fc [2]: no binding to Tie2-Fc was detectable; binding to Tie2-Fc ([2]; listed as rhVEGF): no detectable binding; binding to Tie2-Fc [3]: no binding to Tie2-Fc was detectable |
| BowAng1 (Ang-F1-Fc-F1) (ligand) RDCADVYQAGFNKSGIYTIYINNMPEPKKVFCNMDVNGGGWTVIQHREDGSLDFQRGWKEYKMGFGNPSGEYWLGNEFIFAITSQRQYMLRIELMDWEGNRAYSQYDRFHIGNEKQNYRLYLKGHTGTAGKQSSLILHGADFSTKDADNDNCMCKCALMLTGGWWFDACGPSNLNGMFYTAGQNHGKLNGIKWHYFKGPSYSLRSTTMMIRPLDFRDCADVYQAGFNKSGIYTIYINNMPEPKKVFCNMDVNGGGWTVIQHREDGSLDFQRGWKEYKMGFGNPSGEYWLGNEFIFAITSQRQYMLRIELMDWEGNRAYSQYDRFHIGNEKQNYRLYLKGHTGTAGKQSSLILHGADFSTKDADNDNCMCKCALMLTGGWWFDACGPSNLNGMFYTAGQNHGKLNGIKWHYFKGPSYSLRSTTMMIRPLDF | – | 0.00231 | 0.00232 | 0.611 | 0.465 | – |
| COMP-Ang1 (ligand) DLAPQMLRELQETNAALQDVRELLRHRVKEITFLKNTVMECDACGDTVHNLVNLCTKEGVLLKGGKREEEKPFRDCADVYQAGFNKSGIYTIYINNMPEPKKVFCNMDVNGGGWTVIQHREDGSLDFQRGWKEYKMGFGNPSGEYWLGNEFIFAITSQRQYMLRIELMDWEGNRAYSQYDRFHIGNEKQNYRLYLKGHTGTAGKQSSLILHGADFSTKDADNDNCMCKCALMLTGGWWFDACGPSNLNGMFYTAGQNHGKLNGIKWHYFKGPSYSLRSTTMMIRPLDF | – | 0.00208 | 0.00361 | 1.36 | 1.32 | – |
